Assay results reported in patent US9340588B2, “Peptide secreted by Lactobacillus plantarum with immunomodulating function” (Imperial Innovations Limited, priority 2011, dated 2016).

Experiments:
[1] = system: enriched dendritic cells from human blood (LDCs); test: Surface marker expression on blood-enriched dendritic cells (LDCs), flow cytometry; type: cell-based; details: for activation molecule CD83 on DCs / co-stimulating molecule CD40 on DCs / induction of MHC type II molecules (HLA-DR) on DCs: ST peptide 0.1-10 μg/mL or LPS 100 ng/mL, FIG. 5 panel B
Description: (§1) The dendritic cells were obtained from healthy patients who had neither autoimmune diseases, nor inflammatory diseases nor allergies nor malignant tumors. These subjects had given their written consent for their blood to be used for scientific purposes. The peripheral blood mononuclear cells (PBMCs) were isolated by differential centrifugation in Ficoll-Paque Plus (Amersham Biosciences, Chalfont St. Giles, UK). The cellular fraction LDC (low-density cells) was obtained by overnight centrifugation in NycoPrepe™ solution. The cells present in this LDC fraction were HLA-DR positive in 98-100% of cases, with morphological characteristics typical of the DCs (Ng, et al. (2009). A novel population of human CD56+ human leukocyte antigen D-related (HLA-DR+) colonic lamina propria cells is associated with inflammation in ulcerative colitis. Clin. Exp. Immuno1.158, 205-218).
(§2) Half a million LDCs per milliliter were cultured in complete medium (Dutch modified RPMI 1640 (Sigma-Aldrich, Dorset, UK) containing 100 U/mL penicillin/streptomycin, 2 mM L-glutamine, […] gentamicin (Sigma-Aldrich) and fetal bovine serum at 10% (v/v) (TCS cellworks, Buckingham, UK)). These cultures were carried out in the presence of the ST peptide identified as SEQ ID NO: 1 purified at concentrations of 10 μg/mL, 1 μg/mL and 0.1 μg/mL, and of LPS (100 ng/mL) (Sigma-Aldrich, St. Louis, USA) as positive control. The results were compared with parallel cultures without ST peptide identified as SEQ ID NO: 1 nor added LPS, acting as negative controls.
For the various experiments, labeling of the cells with the various antibodies (Table 1) was carried out in PBS supplemented with 1 mM EDTA and sodium azide at 0.02% (w/v) (FACS buffer). Labeling was carried out for 20 minutes in ice, in the dark. The cells were then washed with FACS buffer and were fixed with paraformaldehyde at 1% (v/v) in saline solution, and stored at 4° C. until acquisition of data in the flow cytometer. The negative controls used were isotype-matched antibodies without specificity, labeled with the same fluorochrome, which were obtained from the same company (isotype controls).
(§3) The flow cytometry data were obtained in a FACSCalibur cytometer (BD Biosciences), and the data were analyzed with the WinList 5.0 software (Verity, Me., US). The proportion of samples positive for a particular marker was determined relative to isotype controls. For quantification by histograms, an analysis was performed with the WinList software, in which the histogram of isotype staining was subtracted from the histogram of specific staining using normalized superenhanced Dmax (SED) substraction (Bagwell, C. B. (2005). Hyperlog—a flexible log-like transform for negative, zero, and positive valued data. Cytometry. 64, 34-42).

[2] = system: T lymphocytes stimulated by enriched dendritic cells from blood (LDC); test: T lymphocytes stimulated with blood LDCs conditioned with ST peptide: homing markers and cytokines; type: cell-based, human
Method: (§4) The T lymphocytes were obtained from peripheral blood mononuclear cells (PBMCs). The PBMCs, obtained from freshly drawn blood as described in example 1, were resuspended in MiniMACs buffer (PBS supplemented with bovine serum albumin 0.5% (w/v) and EDTA 2 mM). This suspension was enriched with T cells by removing the CD14 positive, CD19 positive and HLA-DR positive cells with immuno-magnetized beads (Miltenyi Biotech, Bisley, UK) following the manufacturer's instructions. A percentage of T cells of 94.91%±1.06 (mean±standard deviation) was obtained as the mean value of all the extractions/enrichments.
(§5) The T cells were labeled with 5-carboxyfluorescein diacetate succinimidyl ester (CFSE, Invitrogen Ltd, UK) according to the manufacturer's instructions. The T cells thus labeled (4×10^5 cells per well) were incubated for 5 days with DCs at 0, 1, 2 or 3% in microtiter plates with U-shaped bottom. The proliferating T cells were identified and quantified by flow cytometry as those that contained a small amount of CFSE (CFSE^low) (FIG. 8).
The remaining flow cytometry protocols were carried out as described in section 1 of example 1.

[3] = system: enriched dendritic cells from human blood (LDCs); test: Intracellular cytokine production in blood-enriched dendritic cells (LDCs), monensin 4 h, flow cytometry; type: cell-based; details: ST peptide 0.1-10 μg/mL, 4 h monensin window, FIG. 6
Description: as §1
as §2, with “The results were compared with parallel cultures without ST peptide identified as SEQ ID NO: 1 nor added LPS, acting as negative controls.” left out
as §3
The DCs were cultured for 4 hours in the presence/absence of monensin. […] This protocol has been extensively validated by our colleagues (Hart et al., (2005) Characteristics of intestinal dendritic cells in inflammatory bowel diseases. Gastroenterology. 129, 50-65) and makes it possible to quantify changes in the natural production of cytokines by the DCs in the absence of external stimuli such as PMA and/or ionomycin. Using this approach, the intracellular content of each cytokine is not determined. Instead, the changes induced in the production of cytokines in a temporal window of 4 hours (incubation time with monensin) are determined independently of the initial content of cytokines.

[4] = system: T lymphocytes stimulated by enriched dendritic cells from colon biopsies (gut DC); test: T lymphocytes stimulated with intestinal mucosa DCs conditioned with ST peptide: homing markers and cytokines; type: cell-based, human; details: T cells stimulated with gut DCs pulsed with ST peptide, vs basal gut DC
Method: as §4, §5
This example is the same as the preceding example, except in this case DCs isolated from intestinal mucosa were used.

[5] = system: dendritic cells from colon mucosa biopsies (intestinal DC); test: Intracellular cytokine production in dendritic cells from colon mucosa biopsies; type: cell-based, human
Method: The DCs were cultured for 4 hours in the presence/absence of monensin. Then they were stained for the surface markers as described above. Next they were fixed with LeucopermA, and permeabilized with LeucopermB before adding the intracellular staining antibodies. After incubation, the DCs were washed in FACS buffer, were fixed and were acquired as described above. The analysis was performed by the SED substraction detailed above, where the histogram of each cytokine of the DCs that had not been incubated with monensin were subtracted from the histogram of each cytokine of the DCs that had been incubated in the […] of monensin. This protocol has been extensively validated by our colleagues (Hart et al., (2005) Characteristics of intestinal dendritic cells in inflammatory bowel diseases. Gastroenterology. 129, 50-65) and makes it possible to quantify changes in the natural production of cytokines by the DCs in the absence of external stimuli such as PMA and/or ionomycin. Using this approach, the intracellular content of each cytokine is not determined. Instead, the changes induced in the production of cytokines in a temporal window of 4 hours (incubation time with monensin) are determined independently of the initial content of cytokines.
Biopsies from the colon were obtained from three healthy patients, who had given their written consent to participate in this study (one woman and two men, age range 30-58 years). These patients had normal intestines, both macroscopically and histologically, and had been examined after reporting changes in intestinal transit or rectal bleeding. Once obtained, the biopsies were collected in complete medium cooled to 4° C. and were processed before the first hour counting from when they were obtained. The biopsies were incubated in Hanks's balanced salt solution (HBSS) (Gibco BRL, Paisley, Scotland, UK) containing 1 mM dithiothreitol (DTT) (Sigma-Aldrich) for 20 minutes. Next, they were incubated in a 1 mM solution of ethylenediaminetetraacetic acid (EDTA) in order to remove both the epithelial cells and the layer of mucus and its associated bacteria. […] The cellular suspensions of mononuclear cells of the lamina propria (200000 cells/mL) were incubated for 4 hours in the presence of the ST peptide identified as SEQ ID NO: 1 purified (10 μg/mL) and in the presence/absence, in its turn, of monensin, with their corresponding negative controls. The DCs of the lamina propria were identified by flow cytometry from the presence of the markers HLA-DR+ and CD3-CD14-CD16-CD19-CD34- (Hart et al. (2005) Characteristics of intestinal dendritic cells in inflammatory bowel diseases. Gastroenterology, 129, 50-65).
The remaining procedures followed in this example were the same as in section 1 of example 1.

[6] = T cells co-incubated with LDCs pre-incubated with ST peptide, FIGS. 10 and 11
[7] = T cells incubated 5 days with LDCs pre-incubated with ST peptide, FIG. 9
[8] = ST peptide 0.1, 1 or 10 μg/mL, FIG. 5
[9] = colon biopsies of healthy patients, ST peptide 10 μg/mL, 4 h, FIG. 7
[10] = single donor with abnormal IL-12 production, FIG. 14

Molecule: lipopolysaccharide [LPS, reference compound]
- activation molecule CD83 on DCs [1]: did induce overexpression
- co-stimulating molecule CD40 on DCs [1]: did induce overexpression
- induction of MHC type II molecules (HLA-DR) on DCs [1]: did induce overexpression

B1: ST peptide: Peptide of 73 amino acids rich in serine and threonine, derived from protein D1 secreted by Lactobacillus plantarum; SEQ ID NO: 1 (protein, listed as Lactobacillus plantarum)
chain: GEVDGDSTTTTSTSTQTTQQTTTTQSSAQTSQTQAQPSQASQTQSSQTQTSKPAAQTTQTSSSTSNYHHHHHH
modifications: (1)..(73) ST peptide sequence
- production of IFNγ in T cells [2, 6]: decreased
- production of IL-17 in T cells [2, 6]: decreased
- CLA (marker of migration to skin) in T lymphocytes [2, 7]: increased considerably
- integrin β7 (marker of migration to intestinal mucosa) in T lymphocytes [2, 7]: decrease
- marker of migration to intestinal mucosa integrin β7 on DCs [1, 8]: did not produce changes
- marker of migration to skin CLA on DCs [1, 8]: did not produce changes
- activation molecule CD83 on DCs [1]: Nor did the peptide produce changes
- co-stimulating molecule CD40 on DCs [1]: Nor did the peptide produce changes
- induction of MHC type II molecules (HLA-DR) on DCs [1]: Nor did the peptide produce changes
- production of intracellular TGFβ in LDCs [3]: did not affect
- synthesis of IL-6 in LDCs [3]: reduction in the synthesis
- synthesis of IL-10 in LDCs [3]: increase in the synthesis
- synthesis of IL-12 in LDCs [3]: reduction in the synthesis
- production of IL-10 in T cells ([4]; FIG. 12): even greater increase in the production
- production of TGFβ in T cells ([4]; FIG. 12): even greater increase
- lymphocytes expressing the marker of migration to skin (CLA) ([4]; FIG. 13): greater number of lymphocytes
- production of IL-10 in intestinal DCs [5, 9]: increase in the production
- production of IL-12 in intestinal DCs [5, 9]: absence of any increase in the production
- production of IL-10 in colon mucosa DCs of a donor with unusually high IL-12 [5, 10]: increasing the production
- production of IL-12 in colon mucosa DCs of a donor with unusually high IL-12 [5, 10]: completely cancelled the production
